Measured values: the DeepSol protein solubility set

Test: soluble on expression in E. coli; label from the status in PepcDB or PDB records
For “MGSDKIHHHHHHALSSIEKIQGKDRYETAAKIAQKQTYENVVLVNTDNTLADGLSASGLAGTVKAPILLSQRNSIPSDTEKMLKDVKKVYIIGTEDSIGKSVENELKQKGIEVKRIGGNDRIETSYLIAKEIASIKPIDKVFITNGYTGEADAMSASSVASRDGAPIILTNGKNVPFEKKEGVQCYALGSEEIISNDLVKKTNSVRLAGEDRFETNKKVIKHFYSSAKEFYLSKGYQLVDAVAGSSIAKNAPIVLVDGNSDKSVLRSADKITALGGIDEKTLEQCLSASSLDASAPTITVGNLNIYQGDKFDISKLNIVAKDSNGNDLTPELIGNINTDKVGKYKVTIKATDIGGKTTSISVEVNVLEYKTNDMNSSEFKRMVSSEMYSLVNSYRKEKGKEPLQVSENLQGMANYWSKYMADKGEFAHVINGKNAAEVFSGGIRSEENIAFVPLTTKSTYTTKDAREVANVIFTVWKKSDKYNENMLSSKFAYTGFGLYILPDGQVYATQEFLNK”, the “soluble on expression in E. coli” value was “not soluble”.
For “MGSDKIHHHHHHAPRTPPATDAWSGFRQLFELDPHYAHFANFLITSHPRPVREAIASLRAQLDQHPARCVEWDTQSEWKHEAEVREWAGRYLEVKPRQIALTGSTTEGLGMIYGGLRLNPQQEILTTEHEHYSTRNILAYRSQRDGTQVRKLRLFDDPAKVSDDQVLSTIAAAIKPQTRVLGMTWVHSGSGVKLPVGQIGALVHEANRNRDENDRILYVIDGVHGFGVEDMRFADLQCDYFIAGTHKWMFGPRGTGIICAASTELKHLTPTFATFSENEDFATTMTPGGYHAFEHRWALGKAFELHLQHGKAAIQARIHGLNDYLKERLAQHRAIELVTPRSPNHSAGFTFFRVKGQDVEAIAAHLNSQRIVVDAVDRDVGPVVRTAPGLLNTEAEIDRLVDVLGQRLRA”, the “soluble on expression in E. coli” value was “not soluble”.
With “MGSDKIHHHHHHAQPTDPSTTDSELTMLVGTYTSGNSKGIYTFRFNEETGESLPLSDAEVANPSYLIPSADGKFVYSVNEFSKDQAAVSAFAFDKEKGTLHLLNTQKTMGADPCYLTTNGKNIVTANYSGGSITVFPIGQDGALLPASDVIEFKGSGPDKERQTMPHLHCVRITPDGKYLLADDLGTDQIHKFNINPNANADNKEKFLTKGTPEAFKVAPGSGPRHLIFNSDGKFAYLINEIGGTVIAFRYADGMLDEIQTVAADTVNAQGSGDIHLSPDGKYLYASNRLKADGVAIFKVDETNGTLTKVGYQLTGIHPRNFIITPNGKYLLVACRDTNVIQIFERDQATGLLTDIKKDIKVDKPVCLKFVD” the “soluble on expression in E. coli” value was “not soluble”.
For “MGSDKIHHHHHHAQQAPAPCGLVPSARQLEWYNREMIAFFHFGINTFEEYVNEGDGKASTAIFNPTALDCRQWMQTLKAAGIPAAILTAKHADGFCLWPSKYTDYSVKNAAWKNGKGDVVREFVDACEEYGLKAGIYLGPHDRHEHLSPLYTTERYKEYYAHQLGELMSDYGKIWETWWDGAGADELTTPVYRHWYKIVREKQPDCVIFGTKNSYPFADVRWMGNEAGEAGDPCWATTDSVAIRDEAQYYKGLNEGMLDGDAYIPAETDVSIRPSWFYHAEEDSRVKSVRELWDIYCTSVGRNSVLLLNFPPDRRGLIHSTDSLHAALLKQGIDETFSTNLLRGAKVKATNVRGAKYSPEKMLDNEKNTYFAGKDGEVKADIIFTLPKTIEFDCLMIEEVIELGHRTTKWSVEYTVDGKNWITIPEATDKQAIGHKWIVRLAPVKAKQVRLRIQDGKACPAIHTFGVYKQSPVFKL”, the “soluble on expression in E. coli” value was “not soluble”.
In the case of “MGSDKIHHHHHHAQTCGATYITEFQYDLKKRTNWCNLLRLDAYVPIGTKGILEFASIHVYKTRPERIINDLQTFSNIEEDNLPCAIAVLGYTRLVGNVTLFAGIRNLNEDYFTTPCMSLFTNSSCGIFPTLSANYPIANYPLAALCLDYKMTLGRFGIESSLYNGKGYNGWSKGKHPFTFNPRKDGVFSITEINYQTEYGKCFGGFSLHTNGDMPDVAGEWKTREREKKVSPKMTFAWWGYAERKLWSRVRQEVNLLVQYTRTSSVFSECRNYMGAGVTWIYVPGGQKRHEAGLFLSAAQFKSCNEVAGEVTYRYSFNRDTYIQPAIHLIKNGGGLHEVFLIRMGYILNGGRVR”, the “soluble on expression in E. coli” value is reported as “not soluble”.
With “MGSDKIHHHHHHATKTEQIPVNKTYAACPQNWIGVENKCFYFSEYPSNWTFAQAFCMAQEAQLARFDNQDELNFLMRYKANFDSWIGLHRESSEHPWKWTDNTEYNNTIPIRGEERFAYLNNNGISSTRIYSLRMWICSKL” the “soluble on expression in E. coli” value was “not soluble”.
With “MGSDKIHHHHHHCKPSKDETSSLKTADRKPLVTNLGNNVILPRYVALNTSVNAFDSEVQIFTAAPTIENLTSLRIKFYQAYIDWEYVACFEFGPAAASTVNLGTKTVNAFPADTAVIKNKIVQGVTAIPPTNSAMYSGFPAIDYLLFAKSLTAQQIVDSFTVSSTAVKRCNYLKTVSSDLKARINTTYTNWTASGANFISLYTNSTGIDLGSATSQTVNMLVADVENIKNFKLGIPLNIIQNVVVGDGSTVNPFKCEGYHSDSSLVLAKASIESLRKLYLGIGADGTDGEGFDNYLEAIDRSGLNVQIKNQIALLQAKLDAIPAPISIAIKNPAGKQAVNEAYTETLHLLVLLKVDMASAIGVMISYGDTDGD” the “soluble on expression in E. coli” value was “not soluble”.
With “MGSDKIHHHHHHCSTEVTEYRQQQPALDIFHYFQGRTEAWGMVQDRSGKQLRRFHVEIDGDVVGDTLTLHERFVYDDGEKQQRIWRIRRTGDNRYQGTAGDIEGVASGQAAGNAFHWRYSMNVEASGSRWLLHFDDWMFLQDGSHLFNKTEMKKFGITVATVTLFFTRTTAEERTAP” the “soluble on expression in E. coli” value was “not soluble”.
In the case of “MGSDKIHHHHHHDEINKDHNHTTAVPAKMILTDVMTSTAFSVVSGDFNLYGGMYVEHETGSHNQFYYAETRSSCTSASTFNNSWGGTYSTLKDALISVKVAEEEQNFITKGIAELFVAYNLAILTDMYGDTPWKEACDYTVSMTPAIDKQEEIYKDIMAYVDAAIEDLQKPDLTSLSNQDLIYKGDASAWLKTAYGLKARYTMRLMGRSADVKGDMEKVLDYISKSYTSAAEQCSYAMYGVGVNINPFFGVFYSRLGEVASRSMFDKLNERNDPRIRRCYVEANSQTMIASKDDPLLNLAHNGDLVQSQLEYTVSMFCAAQTAPTHILSYHEVLFLKAEALCRLNRKDEAKAVLKEAVVAGMANMEVNIKSALASDYWGGFLNVTNEVTPEEAASYFDENVVPLFDANPLKETMIQKYISFWNADGESTECYNDVRRLKSLGEDIYGLQNPGKFPLRCPYGNDDTTTNPNIQAAYGDGQYVFTENVWWAGGTR”, the “soluble on expression in E. coli” value is reported as “not soluble”.
For “MGSDKIHHHHHHDIRPVGSVIPQTAEEYRALLARAYLNVPNDRGLACLRSDEMLVNDNEYDRNSYGDIERWNDVSPFPGTSQFTWSNFYNVLFIANQVIESQKEITEGTPEVVNQLVGEAHLLRAYLHFVLVNLHGQPYTKSGALNSKSIPLKLDTDLEKTLGRNTVEEVYTSILSDIEHARELINKEKWETVFSYRFNVLSVDALQSRVSLYMGAWPKCLESAEAVLAKKSVLVDMNETPLALPNHFESVESITALEQVMGSSVNNAVWVPATFLALYQEGDKRLAAYFAAPDENGNRKSSKGGKREFSCTFRVGELYLNAAEAAANMDKLPHARMRLLELMRKRYTPEAYDKKENAVNVMDKNALISEILNERARELAFEGHRWFDLRRTTRPRMVKVLQGKTYILEQDDPRYTIPIPRDAIAANPGLAN”, the “soluble on expression in E. coli” value was “not soluble”.
In the case of “MGSDKIHHHHHHDKAYTDAESYTKGLHKIYSVWALSGQDGSSSSDISGLDAGNTALLRCWWTLQEQPTDEMKNAWNDAWCTEVNYMTWTTNKVEPIEGVYQRCMYIVALVNEFLKNIPNAPESIDKESYIAQARFNRAFAYYVLMDMFALPPFITEKNYSIEPAPLSREDLFNWIEAELNEIKPNLPSPRSEYGVADQAVASALLARMYLNAEIYTGKARYTECINACNEVIKAGYQLADNYADLFKADNGENPDTKKEIIYPIIFDGDKTQSWGMAAIIIGARGAEDKDVLLAHSGVDQGWAGFRATSNLVHLFDFQNDEEPKASEIQDKRGIFYDKGRSIDITSSVSGTFETEGWSVFKFSNLNSNGQPGKNTLWVDTDFPMFRLGDIYLMYAEAVARGGEGSKASAVEYINALRKRAYGDDKHNISENWLEENNFRNLLDERGRELYWEGIRRTDLVRFDLLTSGSYTWDFKGGINTGVGVNKRYNVYPIPVTDLTVNGNLQQNEGY”, the “soluble on expression in E. coli” value is reported as “not soluble”.
For “MGSDKIHHHHHHDLTEEIHSSVIAENYYNNAGEVMAAMMRPWGHFCGTMQVAQSPWSCNELSSDCAAWPQKGRHGYDNGDWIRLHRHQWIPTDGQVVDAWKKLFEGIGYANNFLTDTENIDFEALQVPMSKAQAQAEMRVYRAYCYWYVMDMFGTAPICEKIGEINPSSKSRAELFAWIEKELNESIPSLSESKTETYGRVSKWGAYALLARLYLNAEIYTGQARWDDCIAACDELAKGGFALDKKWNDTFRADNDKRSTEIIWSIVYDEVYAKGMGWYQRWLHYAHQTGWDLQSGPWNGLVTQPTFYDSFADNDLRKIEGFLIGKQYPRKVDENGNYYYDTTAEPLKGSEEYNGQDLVFVNYIKSMTEGEENSGARSIKYEIQPGTTGDMNNDWVMFRYSEVIYNKAEALMRKNGGKATQEVVDMINSVRQRSFKAEDWEKAKYTTATLTMDEFLAEKGREFAFEGIRRTDLVRFNKFVTTSWWDKTASNEPKRNIFPIPQRQLDANANLSPNEANSLF”, the “soluble on expression in E. coli” value was “not soluble”.
For “MGSDKIHHHHHHENLYFQGMGTDKFNNIKIDKYENLINVLKTGDIFLCSGNYLVSKLIKKVSESMFSHTGIIVKWGEHTLIMESVEDDGVRIVPLEHYIKNYENSNNRYNGSLFIARHELLQNVNDDSEMIRNLIKVGFSLLNSGYDKNEIAQIVARIGLGIGRHEDNNEYICSEFVNECFKKIGVEFLTDSEGFIFPEHIAADHHVLPIAQIE”, the “soluble on expression in E. coli” value was “soluble”.
For “MGSDKIHHHHHHENLYFQGMLNFTVGPVMSSEEVRAIGAEQVPYFRTTEFSSTMLENEKFMLEYAKAPEGSKAVFMTCSSTGSMEAVVMNCFTKKDKVLVIDGGSFGHRFVQLCEIHEIPYVALKLEHGKKLTKEKLYEYDNQNFTGLLVNVDETSTAVLYDTMMIGEFCKKNNMFFVCDCVSAFLADPFNMNECGADVMITGSQKVLACPPGISVIVLAPRGVERVEKSKVRTMYFDLKDALKNQERGQTPFTPAVGILLQINERLKEIKKHGGADAEVARIASQAADFRAKIKDLPFELVSESPANGVTSVHPTTANAYDIFLKLKDEYGIWICPNGGEMKDTIFRVGHIGALTHEDNTTLVNAFKDLQKRNLL”, the “soluble on expression in E. coli” value was “soluble”.
In the case of “MGSDKIHHHHHHGCSDSMTEESDSEQRIPIVFGTQVATRAVVENNKEGMDNFTLWGWVRESDGPKLFFDAVPVTPSGNYGEKRFWAVGRPYGFYAVHPEKMKENNIATEVSCNDKGELRVTGFDSSEMGKGAVDLMTAAKTDVVYEGGGMMAPVLLAFKHELAQVKFTVCTGEKQAEVSDIRLLGVDYKGDLLWTPEESTWQNRINCTEEGTPFVRSESVRIEAGSSVTVLDSVLLLPQPVTEHVAVTFKYAYAGKPLSEAKEAMVYLDVAQTTEWIKSSTYHYKITLPAGDADITVKVSVGDWDSRDISADW”, the “soluble on expression in E. coli” value is reported as “not soluble”.
For “MGSDKIHHHHHHGCSDVNQLLGNEESVDYKSTRRGDPLSIPPDLTQANNDPRYKAPASGTATYSQFQQQGLQQQASAGQNTNVLPERADMRVERDGDLRWLVIERPPEQLFPKVVDFWTDTGFTVSVNNPQAGIIETDWAENRAKIPESWLRQVLGSVLETAWDSGEREKFRTRVERVNGHTEIYITHNQMLEKRVGSDGGQVQWTHGKEDPGLNAAMLARLMVYLGTDVDAARKLVAQAEAAPQAPKVQSVRAEGAMLVVDESFDRAWRRVGVALDSGGFAVDDRDRSAGEYFVRYVDTDTGAQNEQPGFFSRLFSSDKKAQAPQYRIRLTGSGTQTQVTVLDANGQRDSSATAQRMLSVLKDKMV”, the “soluble on expression in E. coli” value was “not soluble”.
